Data from article PMC9127584 (2022).
Several values for one entry are separate records, joined by “and”; a condition that tells them apart may be missing. Equal values may be shown once.

T1: ANAC013 254-274 (Arabidopsis thaliana, UniProt F4IED2)
T1 chain: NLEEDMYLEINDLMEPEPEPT

T2: DREB2A 243-272 (Arabidopsis thaliana, UniProt O82132)
T2 chain: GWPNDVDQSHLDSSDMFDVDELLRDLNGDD

T3: DREB2A (Arabidopsis thaliana (Mouse-ear cress), UniProt O82132)
T3 chain: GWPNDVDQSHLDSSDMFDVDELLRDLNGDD

T4: ANAC013 (Arabidopsis thaliana (Mouse-ear cress), UniProt F4IED2)
T4 chain: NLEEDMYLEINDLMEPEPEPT


Legend:
[1] = biological target: ANAC013 254-274 (Arabidopsis thaliana) (UniProt F4IED2); assay: ITC; conditions: cited from earlier work
[2] = biological target: DREB2A 243-272 (Arabidopsis thaliana) (UniProt O82132); assay: ITC; conditions: cited from earlier work
ANAC013 254-274 = biological target: T1, ANAC013 254-274; assay: ITC
DREB2A 243-272 = biological target: T2, DREB2A 243-272; assay: ITC
DREB2A = biological target: T3, DREB2A; assay: ITC 25 C
ANAC013 = biological target: T4, ANAC013; assay: ITC 25 C

Molecule	Kd [2] [nM]	Kd (DREB2A) [nM]	Kd (ANAC013) [nM]	other results
RCD1 499-572 (from UniProt Q8RY59)	16			Kd [1]: 9 nM
RCD1 RST (from UniProt Q8RY59)	16			
AtTAF4 180-254 (protein) NVNPINRNPKQVPFAALLPTLMNQLDKDRALQLRTLYARLKKNEIPKEGFTRHMKDIVGDQMLRMAVSKLQQVNY				Kd (ANAC013 254-274): 1080 nM; Kd (DREB2A 243-272): 740 nM and 1050 nM
AtRCD1_RST (protein) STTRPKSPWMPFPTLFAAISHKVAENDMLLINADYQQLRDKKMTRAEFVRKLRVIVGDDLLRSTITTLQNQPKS		16	9	
HsTAF4_TAFH (protein) TSSAATETMENVKKCKNFLSTLIKLASSGKQSTETAANVKELVQNLLDGKIEAEDFTSRLYRELNSSPQPYLVPFLKRSLPALRQLTPDSAAFIQQS		110		
AtTAF4_RST (protein) NPINRNPKQVPFAALLPTLMNQLDKDRALQLRTLYARLKKNEIPKEGFTRHMKDIVGDQMLRMAVSKLQQVNY		740	1080	
